Laboratory results: patent publication US20240342322A1 (NETRIS PHARMA, published 2024)

Target: T1, recombinant human netrin-1 (R&D) (human, UniProt O95631 25-604, limits assumed)
T1 construct: Bought recombinant protein; also called h-netrin-1; human recombinant netrin-1
Experiment: bio-layer interferometry

B1: recombinant human Vitronectin (other, UniProt P04004 20-478, looked up)
chain: DQESCKGRCTEGFNVDKKCQCDELCSYYQSCCTDYTAECKPQVTRGDVFTMPEDEYTVYDDGEEKNNATVHEQVGGPSLTSDLQAQSKGNPEQTPVLKPEEEAPAPEVGASKPEGIDSRPETLHPGRPQPPAEEELCSGKPFDAFTDLKNGSLFAFRGQYCYELDEKAVRPGYPKLIRDVWGIEGPIDAAFTRINCQGKTYLFKGSQYWRFEDGVLDPDYPRNISDGFDGIPDNVDAALALPAHSYSGRERVYFFKGKQYWEYQFQHQPSQEECEGSSLSAVFEHFAMMQRDSWEDIFELLFWGRTSAGTRQPQFISRDWHGVPGQVDAAMAGRIYISGMAPRPSLAKKQRFRHRNRKGYRSQRGHSRGRNQNSRRPSRATWLSLFSSEESNLGANNYDDYRMDWLVPATCEPIQSVFFFSGDKYYRVNLRTRRVDTVDPPYPRSIAQYWLGCPAPGHL
notes: also called h-Vitronectin
B1: binds.
